Reference: US20190369104A1, “P27 TYROSINE PHOSPHORYLATION AS A MARKER OF CDK4 ACTIVITY AND METHODS OF USE THEREOF” (THE RESEARCH FOUNDATION FOR THE STATE UNIVERSITY OF NEW YORK, priority 2016, published 2019)

B1: Brk SH3 domain (displayed on phage) (other)
chain: KYVGLWDFKSRTDEELSFRAGDVFHVARKEEQWWWATLLDEAGGAVAQGYVPHNYLAER
notes: also called SH3 domain of Brk
B2: ALT: small peptide ALT, which contains a portion of Brk's SH3 domain; alternatively-spliced form of Brk (SEQ ID NO: 12) (protein)
chain: MVSRDQAHLGPKYVGLWDFKSRTDEELSFRAGDVFHVARKEEQWWWATLLDEAGGAVAQGYVPHNYLAERETVESEPAGHAGCAALQDLAACRGPAAPERGGVLPQPARACELPQGPEPVPRPAAGRALPEARA
modifications: Alt-Brk
B3: GST-K2 (GST-tagged p27 PxxP peptide K2) (peptide)
chain: DVSGSRPAAPLIGAPA
notes: also called K2 site; not shown: N-terminal GST tag from the pGEX-KG expression vector

How the values were obtained:
[1] = system: MDA MB231 cells; assay: Palbociclib inhibitor treatment, viable cell count IC50; type: cell-based; conditions: Homo sapiens, MDA-MB-231
Method: (§1) Cells were seeded on six well plates in duplicate, 5.0×10^4 per well. 24 hours post seeding, one well for each plate was treated with trypsin and counted using the Biorad Automated cell counter. 48 hours post seeding, another well was treated with trypsin and counted and the rest of the wells were treated with Palbociclib (SelleckChem) at 50 nM, 100 nM, 200 nM and 400 nM. DMSO was used as a negative control. Cells were counted again 24 and 48 h post treatment. The IC50 values were determined by normalizing the number of viable cells treated with different concentrations of Palbociclib to the number of viable cells treated with DMSO for each cell line 48 hours post treatment. The number of viable cells treated with DMSO was considered 100%. The log of the viability values was obtained and the data was fitted to a nonlinear regression curve, which was used to generate the IC50 values using Graphpad Prism software.

[2] = system: MCF7 cells; assay: as above; type: cell-based; conditions: Homo sapiens
Method: as §1

[3] = system: HCC1954 cells; assay: as above; type: cell-based; conditions: Homo sapiens; HCC1954 cells (Rb+)
Method: as §1

[4] = system: MCF7-Wt Brk expressing cells; assay: Palbociclib (PD) resistance of Brk-overexpressing cells, IC50; type: cell-based; conditions: Homo sapiens
Method: as §1
Generation of the WT-Brk, KM-Brk, and YF-Brk has been described (Palka-Hamblin H. L. et al., […] J. Cell Sc. 123: 236-45). Amphotropic retroviruses were generated by transfection using Lipofectamine 2000 (Life Technologies 11668-019) of HEK 293 cells with pAmpho envelope and pBabe or pTRE3G tetracycline inducible constructs. Following viral infection of MCF7 cells, stable integrants were isolated by puromycin selection. […]

[5] = system: p27 pY88 in MCF7 cells; assay: Dual pY/p27 IHC assay on cell blocks; type: cell-based; design: key to pY staining intensity: 0: no pY staining; 1: weak pY staining; 2: moderate pY staining; 3: strong pY staining; conditions: MCF7 cells treated with 400 nM Palbociclib, 48 h
Method: 1×10^12 cells were grown in tissue culture, spun down and fixed in 10% formalin, embedded in paraffin, and then analyzed in the dual pY/p27 IHC assay as described. MCF7 cells were treated with 400 nM Palbociclib for 48 h. before cell block preparation. […] On day 1, slides are labeled with a pencil and baked in an oven at 65° C. for 30 minutes and immediately transferred from the oven to a coplin jar containing Xylene. Slides are rinsed in Xylene 4× for 3 minutes each at room temperature followed by a graded alcohol wash at 100%-95%-75% ethanol 3 times, 3 min each at R.T. Slides were then hydrated by incubation in H2O once for 3 min. After drying, a hydrophobic barrier was created around the tissue using a PAP pen. Endogenous peroxide was blocked by incubating the slides with Peroxide block for 30 min at room temp. The slides were washed with TBS-0.1% Tween 20 3 times for 3 minutes each followed by incubation in 1×PBS for 3 min. After an incubation with a with protein block for 1 h at R.T, P27 [MUT] antibody diluted 1:200 in the DAKO antibody diluent was added to the slides for an overnight incubation at 4° C. On day 2, a 1× solution of antigen retrieval was prepared from 10× stock and it was equilibrated at 100° C. in the water bath. […]

[6] = biological target: T1, recombinantly produced His-tagged p27 (full-length p27) (human, UniProt P46527 1-198); assay: phage-ELISA, SH3 phage on immobilised His-p27 (multivalent phage)
T1 construct: also called p27Kip1; His-p27; not shown: C-terminal histidine tag
Method: (§2) Phage supernatants were generated and binding of SH3-phages to recombinantly produced His-tagged-p27 or GST-PxxP-peptides were analyzed as described (Asbach B. et al., (2012) PLoS One 6: e38540).

[7] = system: ER/PR+, Her2− breast cancer cell lines; assay: ALT (alone or with Palbociclib) in breast cancer cell lines; type: cell-based
From the text: To block pY in breast cancer cell lines, we used a small peptide ALT, which contains a portion of Brk's SH3 domain. ALT binds to p27, blocks Brk's association and ability to phosphorylate p27, inhibiting cdk4 and increasing p27's ability to inhibit cdk2. We generated Tetracycline inducible cell lines that expressed ALT and/or engineered a lipid-based nanoparticle delivery vehicle (NP-ALT), permitting us to test ALT as a first generation therapeutic. ALT was also used with Palbociclib to determine if combination therapy reduced drug resistance. pY inhibition comes with a built in biomarker for efficacy and the identification of responsive cell lines and/or future patients. We developed a dual IHC assay for p27 and pY, which we used to analyze both a breast cancer cell line panel previously stratified for Palbociclib sensitivity as well as paraffin-embedded, archival human tumor samples.

[8] = biological target: T2, Abl SH3 domain (displayed on phage) (UniProt P00519 61-121, limits assumed); assay: phage-ELISA on immobilised GST-K2
T2 construct: domain: SH3
From the text: (§3) (FIG. 1A) p27 sequence highlighting the proline tracts of the three putative SH3 domain recruitment sites (PxxP): K1 (90-96), K2 (114-117) and K3 (188-195) (SEQ ID NO: 1). Phage-ELISA-analysis of SFK SH3 interactions with p27 (FIG. 1B) or p27's PxxP motifs (FIG. 1C). Data shown is the mean of three independent experiments±standard deviation after normalization and subtraction of the background binding to GST.
as §2

[9] = biological target: B1; assay: phage-ELISA on immobilised GST-K2
From the text: as §3, §2

[10] = biological target: T3, Yes SH3 domain (displayed on phage) (UniProt P07947 91-152, limits assumed); assay: phage-ELISA on immobilised GST-K2
T3 construct: domain: SH3
From the text: as §3, §2

[11] = ER/PR+, Her2− breast cancer cell lines

T1 sequence (P46527 whole entry): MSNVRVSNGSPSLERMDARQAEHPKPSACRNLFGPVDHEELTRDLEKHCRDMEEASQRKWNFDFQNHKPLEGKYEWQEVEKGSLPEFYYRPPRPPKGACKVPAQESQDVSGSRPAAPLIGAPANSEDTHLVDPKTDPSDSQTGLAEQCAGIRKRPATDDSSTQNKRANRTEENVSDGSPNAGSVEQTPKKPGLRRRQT
T2 sequence (P00519 61-121 limits assumed): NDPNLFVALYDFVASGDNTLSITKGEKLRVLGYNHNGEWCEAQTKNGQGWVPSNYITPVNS
T3 sequence (P07947 91-152 limits assumed): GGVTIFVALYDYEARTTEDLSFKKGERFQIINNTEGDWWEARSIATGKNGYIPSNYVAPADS

CC(=O)c1c(C)c2cnc(Nc3ccc(N4CCNCC4)cn3)nc2n(C2CCCC2)c1=O [Palbociclib]
IC50 [1]: 400 nM | IC50 [2]: 200 nM | IC50 [3]: 1000 nM | IC50 [4]: ~600 nM | pY staining, % of cells stained [5]: 0% | pY staining intensity ([5]; scale 0-3): 0

B1
Kd [6]: 250 nM

B2
cdk2 activity [7, 11]: blocked | cdk4 activity [7, 11]: blocked | pY [7, 11]: blocked | proliferation [7, 11]: blocked | duration of arrest ([7]; breast cancer cell lines): > 10 days

B3
binding result [8]: no binding | binding result [9]: no binding | binding result [10]: no binding
